# In patent US20220025406:
# Tests used:
# Assay in all cases: cell_activity
# [1] = test system: Sleeping Beauty transposase SB100X; settings: excision in HeLa, 3 of 21 clones
# [2] = test system: phiC31 integrase (Streptomyces phage phiC31?); settings: HeLa CI.24.22, 4 of 24 clones positive
# [3] = test system: gp3-phiC31 integrase fusion (Streptomyces phage phiC31?); settings: HeLa CI.24.22.21.3, attL x attR recombination, 13 of 27 clones
# [4] = test system: hyperactive piggyBac transposase (HAhyPBase); settings: excision in HeLa (step 1 and step 3 both 17%); 46% in hiPS cells (Table 17)
substance,measurement,setting,value
Sleeping Beauty ITRs flanking puro-delta-tk,activity,[1],14%
phiC31 attB (pEP24) x attP (pEP28),activity,[2],16%
phiC31 attL (genomic) x attR (pEP50),activity,[3],48%
piggyBac ITRs flanking puro-delta-tk,activity,[4],17%
